This sample holds only a part of the variants without activity.
Assays:
biotinyl-Phe-oxazolone = assay: self-aminoacylation, catalytic enhancement (BFO) (fold over background); higher = more active; k-Seq, kA / k0A0; sequences stand for … in GGGAAUGGAUCCACAUCUACGAAUUC…UUCACUGCAGACUUGACGAAGCUG
Procedure, shortened: (§1)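 Working in 50 μL HEPES/NaCl/KCl/MgCl2/CaCl2 buffer with 5% acetonitrile at pH 6.9–7.0, mutagenized RNA pools (0.43 μM; 21-nt variable region) were reacted with 2–1250 μM of each biotinyl-aminoacyl-oxazolone for 90 minutes at room temperature. Streptavidin capture followed, with quantification by triplicate qPCR and Illumina sequencing. Catalytic enhancement is reported as median kA over the uncatalyzed rate, the low-activity peak of a bimodal Gaussian fit to the data.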

biotinyl-Ile-oxazolone = assay: self-aminoacylation, catalytic enhancement (BIO) (fold over background); higher = more active; k-Seq, kA / k0A0; sequences stand for … in GGGAAUGGAUCCACAUCUACGAAUUC…UUCACUGCAGACUUGACGAAGCUG
Procedure, shortened: as §1

biotinyl-Met-oxazolone = assay: self-aminoacylation, catalytic enhancement (BMO) (fold over background); higher = more active; k-Seq, kA / k0A0; sequences stand for … in GGGAAUGGAUCCACAUCUACGAAUUC…UUCACUGCAGACUUGACGAAGCUG
Procedure, shortened: as §1

biotinyl-Val-oxazolone = assay: self-aminoacylation, catalytic enhancement (BVO) (fold over background); higher = more active; k-Seq, kA / k0A0; sequences stand for … in GGGAAUGGAUCCACAUCUACGAAUUC…UUCACUGCAGACUUGACGAAGCUG
Procedure, shortened: as §1

biotinyl-Leu-oxazolone = assay: self-aminoacylation, catalytic enhancement (BLO) (fold over background); higher = more active; k-Seq, kA / k0A0; sequences stand for … in GGGAAUGGAUCCACAUCUACGAAUUC…UUCACUGCAGACUUGACGAAGCUG
Procedure, shortened: as §1

biotinyl-Trp-oxazolone = assay: self-aminoacylation, catalytic enhancement (BWO) (fold over background); higher = more active; k-Seq, kA / k0A0; sequences stand for … in GGGAAUGGAUCCACAUCUACGAAUUC…UUCACUGCAGACUUGACGAAGCUG
Procedure, shortened: as §1

Sequence | self-aminoacylation (biotinyl-Phe-oxazolone) | self-aminoacylation (biotinyl-Ile-oxazolone) | self-aminoacylation (biotinyl-Met-oxazolone) | self-aminoacylation (biotinyl-Val-oxazolone) | self-aminoacylation (biotinyl-Leu-oxazolone) | self-aminoacylation (biotinyl-Trp-oxazolone)
CUUAUCCUGGUCAUCGAGUGA [Fam2.1 aminoacylation ribozyme variant] | 7.87 | 3.22 | 6.26 | 3.42 | 6.22 | 6.96
GUUCACAUAGGUCAUCGGGUG [Fam2.2 aminoacylation ribozyme variant] | 51.1 | 4.89 | 6.87 | 4.64 | 8.18 | 8.49
GUUACCUUGGUCAUCGAGUGA [Fam2.1 aminoacylation ribozyme variant] | 21.1 | 4.39 | 7.16 | 4.21 | 7.14 | 9.03
AAGUUUGCUACGAGUCGCAAG [Fam3.1 aminoacylation ribozyme variant] | 1.05 | 0.656 | 0.922 | 0.876 | 0.671 | 0.978
AUUACCUUUGUCAUCGAGUGA [Fam2.1 aminoacylation ribozyme variant] | 20 | 3.25 | 5.22 | 3.06 | 6.05 | 6.87
AUUACUCUGGUCAUCGAGAGA [Fam2.1 aminoacylation ribozyme variant] | 1.03 | 0.907 | 0.867 | 0.908 | 0.713 | 0.523
AUUCCCCUGCUCAUCGAGUGA [Fam2.1 aminoacylation ribozyme variant] | 2.12 | 1.54 | 1.53 | 1.51 | 1.89 | 1.06
CAAUUUCAAACAAUCGGUCUG [Fam1A.1 aminoacylation ribozyme variant] | 9.15 | 1.01 | 1.02 | 0.869 | 0.903 | 5.88
AUUACCCUGGUCAUCGAGCGU [Fam2.1 aminoacylation ribozyme variant] | 4.33 | 2.77 | 4.25 | 2.36 | 4.95 | 4.83
CUACUUCACACAAUCCGUCUG [Fam1A.1 aminoacylation ribozyme variant] | 0.747 | 0.859 | 0.913 | 0.854 | 0.81 | 0.495
AAGAUUGCUAAUCGUCGCAAG [Fam3.1 aminoacylation ribozyme variant] | 1.34 | 2.12 | 1.57 | 1.52 | 1.2 | 2.1
AAGUUUGCUAAAACUCGCAAG [Fam3.1 aminoacylation ribozyme variant] | 0.521 | 0.916 | 0.668 | 0.821 | 0.998 | 0.796
CUACUUCACACAAUCGGACUG [Fam1A.1 aminoacylation ribozyme variant] | 0.755 | 0.882 | 0.609 | 0.736 | 0.673 | 0.442
CCACACUUUAGGCAAUCGGUC [Fam1B.1 aminoacylation ribozyme variant] | 0.648 | 1.12 | 0.96 | 1.01 | 0.831 | 0.713
CUUCUUCAAACAAUCGGGCUG [Fam1A.1 aminoacylation ribozyme variant] | 5.81 | 1.29 | 1.25 | 1.06 | 1.43 | 4.55
AUUCACCGAGGUCAUCGGGCG [Fam2.2 aminoacylation ribozyme variant] | 24.4 | 3.19 | 3.34 | 3.86 | 3.66 | 2.96
AAGUUUGCUGAUAGUCGCAAG [Fam3.1 aminoacylation ribozyme variant] | 1.68 | 0.979 | 0.906 | 0.952 | 0.866 | 1.02
AAGUUUGGUAAUAGACGCAAG [Fam3.1 aminoacylation ribozyme variant] | 0.706 | 0.574 | 0.453 | 0.487 | 0.442 | 0.575
CCCCACUUCAAGAAAUCGGUC [Fam1B.1 aminoacylation ribozyme variant] | 11.6 | 1.36 | 1.17 | 1.42 | 1.81 | 9.76
AAUACCCUGGUCAUCGUGUGA [Fam2.1 aminoacylation ribozyme variant] | 11.4 | 1.51 | 2.55 | 1.35 | 2.39 | 2.98
GUACUUCAAACAAUCGGUCUA [Fam1A.1 aminoacylation ribozyme variant] | 4.84 | 1.17 | 0.943 | 0.997 | 0.933 | 3.66
CUACCUCAAACAAUCGGUCAG [Fam1A.1 aminoacylation ribozyme variant] | 1.33 | 0.808 | 1.01 | 0.873 | 1.01 | 0.767

Sequence | self-aminoacylation (biotinyl-Phe-oxazolone) | self-aminoacylation (biotinyl-Ile-oxazolone) | self-aminoacylation (biotinyl-Met-oxazolone) | self-aminoacylation (biotinyl-Val-oxazolone) | self-aminoacylation (biotinyl-Leu-oxazolone) | self-aminoacylation (biotinyl-Trp-oxazolone)
AAGUUUGCAAAUAGUCGCUAG [Fam3.1 aminoacylation ribozyme variant] | 0.824 | 1.15 | 0.905 | 0.856 | 1 | 1.84
CCACAAUUCAAGCAAUCAGUC [Fam1B.1 aminoacylation ribozyme variant] | 1.54 | 0.933 | 0.673 | 0.876 | 0.763 | 0.762
AAGUUUGGUAAUAGUCGCAUG [Fam3.1 aminoacylation ribozyme variant] | 2.43 | 1.51 | 1.31 | 1.62 | 1.31 | 1.58
AUUACCCUGGUCAUCGAUUAA [Fam2.1 aminoacylation ribozyme variant] | 0.508 | 1.02 | 0.935 | 1.1 | 0.933 | 0.619
AUUCACCGAGGUCAUUGGGUG [Fam2.2 aminoacylation ribozyme variant] | 42.6 | 3.83 | 6.99 | 3.88 | 8.02 | 5.88
AUUCACCUAGGGCAUCGAGUG [Fam2.2 aminoacylation ribozyme variant] | 1.76 | 1.26 | 1.45 | 1.2 | 1.65 | 0.91
GUUCACCUAGAUCAUCGGGUG [Fam2.2 aminoacylation ribozyme variant] | 6.53 | 2.6 | 2.87 | 2.75 | 2.92 | 3.29
AUUCACCUUGGUCAUCGGGCG [Fam2.2 aminoacylation ribozyme variant] | 3.77 | 2.74 | 2.81 | 2.77 | 3.24 | 2.93
AAGUUUGCUAAUAGUCGUACG [Fam3.1 aminoacylation ribozyme variant] | 1.11 | 0.65 | 0.547 | 0.565 | 0.524 | 0.579
AUUAUCCUGGUCAUCGAGUGU [Fam2.1 aminoacylation ribozyme variant] | 15.3 | 4.25 | 11.1 | 4.73 | 10.2 | 9.45
AUUCACCUAGGUCAUCGUGUC [Fam2.2 aminoacylation ribozyme variant] | 0.307 | 0.461 | 0.403 | 0.474 | 0.498 | 0.514
AUUCACCUAGGUAGUCGGGUG [Fam2.2 aminoacylation ribozyme variant] | 15.8 | 2.02 | 3.28 | 2.35 | 3.89 | 3.31
AUUCACCUAGGUCCCCGGGUG [Fam2.2 aminoacylation ribozyme variant] | 58.4 | 5.12 | 8.22 | 4.54 | 9.96 | 7.84
CCACCCAUCAAGCAAUCGGUC [Fam1B.1 aminoacylation ribozyme variant] | 0.916 | 1.06 | 0.85 | 1.07 | 0.876 | 0.951
AUUACCCUCGUCAUCGAGUUA [Fam2.1 aminoacylation ribozyme variant] | 0.569 | 0.965 | 0.915 | 0.943 | 0.983 | 0.486
ACACACUUCAAGCAAUCGGUA [Fam1B.1 aminoacylation ribozyme variant] | 2 | 1.73 | 1.66 | 1.55 | 1.84 | 2.19
AAGCUUGCUAAUAGUCGCCAG [Fam3.1 aminoacylation ribozyme variant] | 14.9 | 2.3 | 2.39 | 2.33 | 2.63 | 3.3
AUUAGCGUGGUCAUCGAGUGA [Fam2.1 aminoacylation ribozyme variant] | 13.5 | 2.8 | 3.55 | 3.1 | 4.67 | 5
CUACUUCAAACAAUCCGUAUG [Fam1A.1 aminoacylation ribozyme variant] | 0.759 | 0.723 | 0.65 | 0.81 | 0.769 | 0.715
AAGUUUGCUAAUAGUAGCAGG [Fam3.1 aminoacylation ribozyme variant] | 1.71 | 1.08 | 1.16 | 0.985 | 1.08 | 0.837
AUGACCCUGGCCAUCGAGUGA [Fam2.1 aminoacylation ribozyme variant] | 32 | 3.03 | 5.04 | 3.66 | 7.68 | 6.4

— the supplement of paper PMC9233669
